In publication PMC4156536 one finds FRET efficiency (AF488 on FKBP to Cy3NTA on the His10 tag) data, which are given here for one substance.

This experiment has as its target RyR1 with a His10 tag inserted at position 500 (His^500-RyR1) (rabbit) (UniProt P11716). In words: FRET or BRET. For orientation: Bioluminescence resonance energy transfer reports proximity on the nanometre scale.
UniProt P11716, sequence (P11716 whole entry): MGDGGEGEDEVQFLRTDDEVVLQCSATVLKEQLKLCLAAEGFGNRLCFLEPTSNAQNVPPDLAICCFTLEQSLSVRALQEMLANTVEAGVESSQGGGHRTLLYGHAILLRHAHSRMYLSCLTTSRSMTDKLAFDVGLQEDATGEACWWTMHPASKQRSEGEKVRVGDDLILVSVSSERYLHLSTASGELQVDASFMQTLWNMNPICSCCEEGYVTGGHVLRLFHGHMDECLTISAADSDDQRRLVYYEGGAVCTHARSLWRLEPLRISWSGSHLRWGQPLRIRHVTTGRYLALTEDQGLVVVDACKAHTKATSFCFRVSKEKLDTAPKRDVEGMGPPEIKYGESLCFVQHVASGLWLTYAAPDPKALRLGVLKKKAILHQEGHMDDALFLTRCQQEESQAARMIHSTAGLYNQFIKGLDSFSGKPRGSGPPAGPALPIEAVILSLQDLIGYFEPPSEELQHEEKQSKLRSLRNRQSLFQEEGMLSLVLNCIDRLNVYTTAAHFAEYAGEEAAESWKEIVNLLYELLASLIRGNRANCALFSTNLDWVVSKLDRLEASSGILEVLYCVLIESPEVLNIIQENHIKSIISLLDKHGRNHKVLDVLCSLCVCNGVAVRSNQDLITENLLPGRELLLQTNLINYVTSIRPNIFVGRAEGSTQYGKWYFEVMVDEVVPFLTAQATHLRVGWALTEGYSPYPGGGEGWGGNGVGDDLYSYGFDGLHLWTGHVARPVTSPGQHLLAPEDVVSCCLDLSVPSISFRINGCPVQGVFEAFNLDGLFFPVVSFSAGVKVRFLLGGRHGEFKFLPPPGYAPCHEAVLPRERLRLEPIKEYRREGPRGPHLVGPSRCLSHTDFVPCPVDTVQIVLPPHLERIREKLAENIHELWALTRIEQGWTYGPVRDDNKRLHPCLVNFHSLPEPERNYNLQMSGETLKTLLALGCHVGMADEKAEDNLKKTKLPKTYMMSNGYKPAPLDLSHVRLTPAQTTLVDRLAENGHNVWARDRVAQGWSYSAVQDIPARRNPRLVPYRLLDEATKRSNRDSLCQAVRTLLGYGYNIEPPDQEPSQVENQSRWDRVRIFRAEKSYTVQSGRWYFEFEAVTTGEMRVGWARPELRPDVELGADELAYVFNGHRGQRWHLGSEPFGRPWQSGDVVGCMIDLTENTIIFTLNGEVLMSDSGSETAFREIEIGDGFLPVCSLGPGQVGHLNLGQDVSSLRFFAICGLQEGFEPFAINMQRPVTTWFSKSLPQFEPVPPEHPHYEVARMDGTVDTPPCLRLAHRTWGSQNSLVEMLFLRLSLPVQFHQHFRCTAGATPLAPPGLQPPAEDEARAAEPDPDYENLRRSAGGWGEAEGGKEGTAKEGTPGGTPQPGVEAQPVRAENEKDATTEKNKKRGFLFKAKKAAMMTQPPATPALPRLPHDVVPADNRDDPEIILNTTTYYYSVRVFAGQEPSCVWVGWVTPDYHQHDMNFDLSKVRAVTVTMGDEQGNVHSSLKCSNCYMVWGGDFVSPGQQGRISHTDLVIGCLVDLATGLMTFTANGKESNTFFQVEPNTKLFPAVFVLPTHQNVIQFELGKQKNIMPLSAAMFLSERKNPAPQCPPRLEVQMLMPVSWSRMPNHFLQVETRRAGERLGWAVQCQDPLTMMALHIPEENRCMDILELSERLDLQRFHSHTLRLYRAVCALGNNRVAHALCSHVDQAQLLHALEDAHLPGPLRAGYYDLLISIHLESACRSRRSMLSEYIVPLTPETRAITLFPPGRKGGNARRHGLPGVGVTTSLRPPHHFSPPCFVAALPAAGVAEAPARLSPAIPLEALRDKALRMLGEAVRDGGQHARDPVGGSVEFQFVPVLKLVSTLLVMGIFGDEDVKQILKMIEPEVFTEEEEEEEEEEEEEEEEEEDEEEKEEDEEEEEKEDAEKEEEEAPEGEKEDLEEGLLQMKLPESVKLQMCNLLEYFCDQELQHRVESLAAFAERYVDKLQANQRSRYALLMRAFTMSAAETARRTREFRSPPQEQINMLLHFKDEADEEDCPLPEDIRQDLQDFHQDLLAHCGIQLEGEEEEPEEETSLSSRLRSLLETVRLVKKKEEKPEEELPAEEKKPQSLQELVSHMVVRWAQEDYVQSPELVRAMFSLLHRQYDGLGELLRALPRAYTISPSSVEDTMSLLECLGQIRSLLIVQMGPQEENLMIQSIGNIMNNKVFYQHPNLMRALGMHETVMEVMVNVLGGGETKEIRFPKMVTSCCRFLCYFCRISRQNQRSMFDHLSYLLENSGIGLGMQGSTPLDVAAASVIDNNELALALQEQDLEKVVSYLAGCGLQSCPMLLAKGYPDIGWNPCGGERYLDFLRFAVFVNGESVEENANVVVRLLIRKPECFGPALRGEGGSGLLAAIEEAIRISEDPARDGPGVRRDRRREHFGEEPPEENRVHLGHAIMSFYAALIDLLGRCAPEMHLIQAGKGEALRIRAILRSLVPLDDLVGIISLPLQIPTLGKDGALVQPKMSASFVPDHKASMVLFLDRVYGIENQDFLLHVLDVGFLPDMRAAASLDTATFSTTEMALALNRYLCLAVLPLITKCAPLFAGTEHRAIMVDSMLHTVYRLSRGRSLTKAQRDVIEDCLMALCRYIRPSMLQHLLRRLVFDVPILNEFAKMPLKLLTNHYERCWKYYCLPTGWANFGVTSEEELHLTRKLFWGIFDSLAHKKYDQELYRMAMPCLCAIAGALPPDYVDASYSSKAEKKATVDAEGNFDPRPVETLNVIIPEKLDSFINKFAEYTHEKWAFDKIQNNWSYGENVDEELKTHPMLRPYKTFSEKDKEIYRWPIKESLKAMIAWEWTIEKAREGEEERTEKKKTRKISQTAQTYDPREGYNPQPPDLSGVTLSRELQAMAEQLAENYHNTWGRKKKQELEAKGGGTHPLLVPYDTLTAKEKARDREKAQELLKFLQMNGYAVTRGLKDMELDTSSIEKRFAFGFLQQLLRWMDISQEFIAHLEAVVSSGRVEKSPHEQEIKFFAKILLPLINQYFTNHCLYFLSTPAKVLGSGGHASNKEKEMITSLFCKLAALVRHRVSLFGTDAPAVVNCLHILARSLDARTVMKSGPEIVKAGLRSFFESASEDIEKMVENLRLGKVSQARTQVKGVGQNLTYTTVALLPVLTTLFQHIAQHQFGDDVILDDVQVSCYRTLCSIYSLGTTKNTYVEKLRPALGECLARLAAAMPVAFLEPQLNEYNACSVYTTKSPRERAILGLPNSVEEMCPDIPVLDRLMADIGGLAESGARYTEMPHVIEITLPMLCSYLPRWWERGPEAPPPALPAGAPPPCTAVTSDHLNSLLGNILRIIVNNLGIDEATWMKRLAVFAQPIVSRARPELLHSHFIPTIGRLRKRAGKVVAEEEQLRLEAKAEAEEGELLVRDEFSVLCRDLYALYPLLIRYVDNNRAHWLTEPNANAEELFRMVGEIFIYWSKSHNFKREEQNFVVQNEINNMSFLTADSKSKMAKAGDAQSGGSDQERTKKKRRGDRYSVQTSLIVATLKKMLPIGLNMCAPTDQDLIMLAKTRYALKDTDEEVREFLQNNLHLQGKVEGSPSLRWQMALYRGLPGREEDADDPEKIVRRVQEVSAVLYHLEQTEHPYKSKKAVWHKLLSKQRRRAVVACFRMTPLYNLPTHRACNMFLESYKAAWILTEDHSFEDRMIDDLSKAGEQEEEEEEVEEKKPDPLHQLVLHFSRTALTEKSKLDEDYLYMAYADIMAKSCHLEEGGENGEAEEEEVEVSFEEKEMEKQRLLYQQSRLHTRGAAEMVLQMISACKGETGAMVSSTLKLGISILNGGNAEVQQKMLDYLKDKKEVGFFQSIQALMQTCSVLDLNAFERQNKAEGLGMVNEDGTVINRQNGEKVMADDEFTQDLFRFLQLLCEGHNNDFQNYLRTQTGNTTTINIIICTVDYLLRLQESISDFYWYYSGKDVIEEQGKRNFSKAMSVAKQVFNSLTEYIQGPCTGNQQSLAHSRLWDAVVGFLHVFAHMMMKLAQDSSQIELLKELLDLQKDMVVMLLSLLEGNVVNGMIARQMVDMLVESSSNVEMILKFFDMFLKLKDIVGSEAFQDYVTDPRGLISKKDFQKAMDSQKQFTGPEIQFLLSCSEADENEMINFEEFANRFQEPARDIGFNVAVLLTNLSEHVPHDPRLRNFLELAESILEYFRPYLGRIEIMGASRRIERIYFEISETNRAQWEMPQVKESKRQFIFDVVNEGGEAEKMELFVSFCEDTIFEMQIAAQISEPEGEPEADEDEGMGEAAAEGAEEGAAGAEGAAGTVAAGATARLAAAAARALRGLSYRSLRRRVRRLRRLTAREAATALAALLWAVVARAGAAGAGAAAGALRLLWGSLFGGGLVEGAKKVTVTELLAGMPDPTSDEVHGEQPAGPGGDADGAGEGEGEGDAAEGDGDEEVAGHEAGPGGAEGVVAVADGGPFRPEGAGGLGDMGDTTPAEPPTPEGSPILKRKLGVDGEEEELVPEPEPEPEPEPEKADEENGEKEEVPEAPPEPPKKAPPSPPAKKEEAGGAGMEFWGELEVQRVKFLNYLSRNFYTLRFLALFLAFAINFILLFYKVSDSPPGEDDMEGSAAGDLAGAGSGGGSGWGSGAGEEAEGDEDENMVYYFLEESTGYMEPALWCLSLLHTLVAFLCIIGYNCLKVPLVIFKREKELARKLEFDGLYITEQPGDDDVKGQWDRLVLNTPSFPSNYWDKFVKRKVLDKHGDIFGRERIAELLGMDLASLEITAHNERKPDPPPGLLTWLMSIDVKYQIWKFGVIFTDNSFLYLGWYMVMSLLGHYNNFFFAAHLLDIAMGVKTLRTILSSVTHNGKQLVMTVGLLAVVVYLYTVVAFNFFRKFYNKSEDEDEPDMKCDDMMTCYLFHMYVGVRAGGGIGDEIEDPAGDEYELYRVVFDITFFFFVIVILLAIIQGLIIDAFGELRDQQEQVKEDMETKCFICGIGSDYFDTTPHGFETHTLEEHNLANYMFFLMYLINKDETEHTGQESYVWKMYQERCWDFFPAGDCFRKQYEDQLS

The substance “FKBP12.6 with AF488 conjugated to amino acid residue 14 (D14-FKBP) (from UniProt P68106 1-108) (natural protein)” displayed an FRET efficiency (AF488 on FKBP to Cy3NTA on the His10 tag) of 0.18.
